The record followed here is patent US20250255960A1 (HRAIN BIOTECHNOLOGY, published 2025).

One assay deals with T1, CD70-8B4 VHH-huIgG1-Fc (human, UniProt P01857-1 104-330 = IgG part, limits assumed).
T1 construct: domain: IgG1-Fc; Recombinant VHH-huIgG1-Fc made in 293F cells; also called VHH-huFc antibody CD70-8B4
The assay can be described thus: BLI (Octet K2); biotinylated CD70 on SA probe, VHH-huFc as analyte at 200, 100, 50, 25 nM. The procedure:
(§1) The affinity of four VHH-huFc antibodies CD70-2A5, CD70-8B4, CD70-9D8, and CD70-11C9 to human CD70 was analyzed by Octet K2 molecular interaction analyzer. The SA probe was immobilized with 200 μL 100 nM biotinylated recombinant human CD70 protein at a height of […]. […] The results are shown by FIG. 8 and Table 4.
For orientation: BLI is a label-free optical method that tracks binding on a fibre tip over time.

The target in the next assay is T2, CD70-2A5 VHH-huIgG1-Fc (human, UniProt P01857-1 104-330 = IgG part, limits assumed).
T2 construct: domain: IgG1-Fc; Recombinant VHH-huIgG1-Fc made in 293F cells; also called VHH-huFc antibody CD70-2A5
The assay is described as above. The method, then: as §1

The target in another assay is T3, CD70-9D8 VHH-huIgG1-Fc (human, UniProt P01857-1 104-330 = IgG part, limits assumed).
T3 construct: domain: IgG1-Fc; Recombinant VHH-huIgG1-Fc made in 293F cells; also called VHH-huFc antibody CD70-9D8
The assay is described as above. The procedure: as §1

Another assay addresses T4, CD70-11C9 VHH-huIgG1-Fc (human, UniProt P01857-1 104-330 = IgG part).
T4 construct: domain: IgG1-Fc; Recombinant VHH-huIgG1-Fc made in 293F cells; also called VHH-huFc antibody CD70-11C9
The assay is described as above. The method, then:
as §1

The target of assay [1] is T5, recombinant human CD27-his protein (human, UniProt P26842 21-192, limits assumed).
T5 construct: Bought; also called commercial CD27; recombinant human CD27 protein; not shown: his tag
T5 sequence (looked up): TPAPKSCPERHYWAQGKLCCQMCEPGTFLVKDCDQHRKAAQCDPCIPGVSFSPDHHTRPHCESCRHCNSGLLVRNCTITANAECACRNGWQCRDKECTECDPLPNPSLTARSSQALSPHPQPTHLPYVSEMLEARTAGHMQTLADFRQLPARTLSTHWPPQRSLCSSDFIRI
Briefly: ELISA; CD70-alFc coated in 4-fold dilution from 100 ng, 0.1 ug/mL CD27-his in solution, HRP anti-his-tag detection; coated CD70-alFc titrated, CD27-his fixed at 0.1 µg/mL. The procedure:
ELISA activity identification of recombinant human CD70-alFc protein with commercial CD27: recombinant human CD70-alFc protein was coated in a 4-fold gradient dilution package in an ELISA plate, the first well was coated with 100 ng, and sequentially diluted 4-fold (100 uL/well), incubated at 4° C. overnight, washed 3 times with 200 uL PBST the next day, and blocked with 1% BSA/PBS for 1 hour. The blocking solution was removed, 100 μL 0.1 μg/mL recombinant human CD27-his protein was added to each well, and incubated at 37° C. for 1 hour. After washing 3 times with 200 μL PBST, horseradish peroxidase-labeled rabbit anti-his-tag antibody (100 μL per well) diluted 1:4000 was added, and incubated at 37° C. for 1 hour. After washing 3 times with 200 μL PBST, 100 μL TMB chromogen solution was added for development at 37° C. for 10 minutes, 100 μL 1M hydrochloric acid was added to stop the reaction, and the absorbance value at OD₄₅₀ was obtained. The analysis results are shown by FIG. 2 and Table 1.
(In general: An ELISA detects its analyte on a solid surface through an enzyme-linked reagent.)

Assay [2] deals with T6, Fc-labeled CD70 antigen.
T6 construct: soluble antigen used at 1:100 to stain CAR-T cells; also called detected with the secondary antibody PE-Fc (axis label PE-Fc)
T6 sequence (P32970 whole entry, species assumed, looked up): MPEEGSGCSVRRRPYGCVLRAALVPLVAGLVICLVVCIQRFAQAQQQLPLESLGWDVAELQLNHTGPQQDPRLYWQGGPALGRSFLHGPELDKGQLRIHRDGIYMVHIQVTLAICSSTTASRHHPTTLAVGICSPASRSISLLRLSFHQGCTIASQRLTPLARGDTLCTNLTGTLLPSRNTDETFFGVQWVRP
The assay can be described thus: flow cytometry: CAR-transduced T cells stained with Fc-labeled CD70 antigen (1:100) and secondary antibody PE-Fc; NT control 0.79. The procedure:
The CAR positive rate of the retrovirus-infected T lymphocytes was detected 72 hours after virus infection. For the chimeric antigen receptor group containing CD70-2A5-BBz, CD70-8B4-BBz, CD70-9D8-BBz, CD70-11C9-BBz and ARGX-BBz clones and the negative uninfected control NT, 1×10⁶ cells from the above two groups respectively, were taken and centrifuged to remove the medium, washed once with PBS, and resuspended in 100 μL in a flow loading tube (BD). Fc-labeled CD70 antigen (1:100) was added and incubated for 30 minutes at 4° C. After washing the cells once with PBS, the secondary antibody PE-Fc was added according to the recommended ratio and incubated for 30 minutes in the dark. After the cells were washed once with PBS, the cells were resuspended in 200 μL of PBS and tested on the machine. The results of flow cytometric analysis of CAR-T positive rate are shown by FIG. 16.
On the technique in general: A flow cytometer gives signals particle by particle.

In assay [3] the target is T6, Fc-labeled CD70 antigen. Briefly: flow cytometry: CAR-transduced T cells stained with Fc-labeled CD70 antigen (1:100) and secondary antibody PE-Fc; NT control 0.61. The procedure: The CAR positive rate of the retrovirus-infected T lymphocytes were detected 72 hours after virus infection. For the chimeric antigen receptor group containing CD70-2A5-BBz, CD70-5C10-BBz, CD70-8A6-BBz, CD70-8B4-BBz, CD70-8E1-BBz, CD70-8F9-BBz, CD70-9D8-BBz, CD70-11C9-BBz and ARGX-BBz clone and the negative uninfected control group NT, 1×10⁶ cells from the above two groups respectively, were taken and centrifuged to remove the medium, the cells were washed once with PBS, and resuspended in 100 μL of the flow loading tube (BD). Fc-labeled CD70 antigen (1:100) was added and incubated for 30 minutes at 4° C. After washing the cells once with PBS, the secondary antibody PE-Fc was added according to the recommended ratio and incubated for 30 minutes in the dark. After the cells were washed once with PBS, the cells were resuspended in 200 μL of PBS and tested on the machine. The results of flow cytometric analysis of CAR-T positive rate are shown by FIG. 11.

The Kd is the constant that tells how readily two partners part at equilibrium. High values mean weaker binding, low ones tighter binding. Usually koff stands for the first-order rate constant of dissociation. Low readings indicate slow dissociation, high ones fast dissociation. What is called kon is the second-order rate constant of association. For orientation: EC50 means the midpoint of the concentration-response curve.

B1: biotinylated recombinant human CD70 protein (ligand, UniProt P32970 39-193, looked up)
chain: QRFAQAQQQLPLESLGWDVAELQLNHTGPQQDPRLYWQGGPALGRSFLHGPELDKGQLRIHRDGIYMVHIQVTLAICSSTTASRHHPTTLAVGICSPASRSISLLRLSFHQGCTIASQRLTPLARGDTLCTNLTGTLLPSRNTDETFFGVQWVRP
modifications: biotin on the avi-tag
notes: also called biotinylated CD70 protein; biotinylated CD70 recombinant protein; not shown: avi-tag (and any other tag or Fc)
Regarding B1, the dissociation constant (Kd) in the assay with CD70-8B4 VHH-huIgG1-Fc is < 1 pM; with CD70-2A5 VHH-huIgG1-Fc, < 1 pM; with CD70-9D8 VHH-huIgG1-Fc, 1830 pM; with CD70-11C9 VHH-huIgG1-Fc, < 1 pM. Further, the koff was < 1e-07 s⁻¹ with CD70-8B4 VHH-huIgG1-Fc, < 1e-07 s⁻¹ with CD70-2A5 VHH-huIgG1-Fc, 0.000235 s⁻¹ with CD70-9D8 VHH-huIgG1-Fc and < 1e-07 s⁻¹ in the assay with CD70-11C9 VHH-huIgG1-Fc. Moreover, the kon with CD70-8B4 VHH-huIgG1-Fc amounted to 45500 M⁻¹ s⁻¹; in the assay with CD70-2A5 VHH-huIgG1-Fc, 36700 M⁻¹ s⁻¹; with CD70-9D8 VHH-huIgG1-Fc, 129000 M⁻¹ s⁻¹; with CD70-11C9 VHH-huIgG1-Fc it was 264000 M⁻¹ s⁻¹.

B2: recombinant human CD70-alFc protein (Fc fusion)
chain: QRFAQAQQQLPLESLGWDVAELQLNHTGPQQDPRLYWQGGPALGRSFLHGPELDKGQLRIHRDGIYMVHIQVTLAICSSTTASRHHPTTLAVGICSPASRSISLLRLSFHQGCTIASQRLTPLARGDTLCTNLTGTLLPSRNTDETFFGVQWVRPELKTPQPQSQPECRCPKCPAPELLGGPSVFIFPPKPKDVLSISGRPEVTCVVVDVGQEDPEVSFNWYIDGAEVRTANTKPKEEQFNSTYRVVSVLPIRHQDWLTGKEFKCKVNNKALPAPIERTISKAKGQTREPQVYALAPHREELAKDTVSVTCLVKDFYPVDINIEWQRNGQPESEGTYATTPPQLDNDGTYFLYSKLSVGKNTWQRGETFTCVVMHEALPNHYTQKSITQSSGK
notes: range 39-193; Made in 293T cells; also called CD70-alIgG1Fc fusion protein; recombinant human CD70 protein
On to B2, for which, in assay [1], the EC50 came to 8.69 ng/mL.

B3: 11C9-BBz (other)
chimeric antigen receptor chain: QVQLVESGGGLVQPGGSLRLSCAASGFTLDYYAVGWFRQAPGKEREGVSCISSSSDGSTYYVDSVLGRFTISRNNAENTVYLQMNSLKPEDTAVYYCSTDVLTSCRSDRYLEVWGQGTLVTVSGTTTPAPRPPTPAPTIASQPLSLRPEACRPAAGGAVHTRGLDFACDIYIWAPLAGTCGVLLLSLVITLYCRFSVVKRGRKKLLYIFKQPFMRPVQTTQEEDGCSCRFPEEEEGGCELRVKFSRSADAPAYQQGQNQLYNELNLGRREEYDVLDKRRGRDPEMGGKPRRKNPQEGLYNELQKDKMAEAYSEIGMKGERRRGKGHDGLYQGLSTATKDTYDALHMQALPPR
notes: also called CD70-11C9-BBz
Consider B3, for which the figures for the “CD70 CAR+ (positive rate of the cells)” value in the assay with Fc-labeled CD70 antigen [2] and with Fc-labeled CD70 antigen [3] were 70.9% and 51.3%, respectively.
